This assay concerns the target integrin αvβ5 on human colon adenocarcinoma HT-29 cells (human (endogenous in HT-29)) (UniProt P06756).
UniProt P06756, sequence (P06756 31-1048, chain 1 of 2): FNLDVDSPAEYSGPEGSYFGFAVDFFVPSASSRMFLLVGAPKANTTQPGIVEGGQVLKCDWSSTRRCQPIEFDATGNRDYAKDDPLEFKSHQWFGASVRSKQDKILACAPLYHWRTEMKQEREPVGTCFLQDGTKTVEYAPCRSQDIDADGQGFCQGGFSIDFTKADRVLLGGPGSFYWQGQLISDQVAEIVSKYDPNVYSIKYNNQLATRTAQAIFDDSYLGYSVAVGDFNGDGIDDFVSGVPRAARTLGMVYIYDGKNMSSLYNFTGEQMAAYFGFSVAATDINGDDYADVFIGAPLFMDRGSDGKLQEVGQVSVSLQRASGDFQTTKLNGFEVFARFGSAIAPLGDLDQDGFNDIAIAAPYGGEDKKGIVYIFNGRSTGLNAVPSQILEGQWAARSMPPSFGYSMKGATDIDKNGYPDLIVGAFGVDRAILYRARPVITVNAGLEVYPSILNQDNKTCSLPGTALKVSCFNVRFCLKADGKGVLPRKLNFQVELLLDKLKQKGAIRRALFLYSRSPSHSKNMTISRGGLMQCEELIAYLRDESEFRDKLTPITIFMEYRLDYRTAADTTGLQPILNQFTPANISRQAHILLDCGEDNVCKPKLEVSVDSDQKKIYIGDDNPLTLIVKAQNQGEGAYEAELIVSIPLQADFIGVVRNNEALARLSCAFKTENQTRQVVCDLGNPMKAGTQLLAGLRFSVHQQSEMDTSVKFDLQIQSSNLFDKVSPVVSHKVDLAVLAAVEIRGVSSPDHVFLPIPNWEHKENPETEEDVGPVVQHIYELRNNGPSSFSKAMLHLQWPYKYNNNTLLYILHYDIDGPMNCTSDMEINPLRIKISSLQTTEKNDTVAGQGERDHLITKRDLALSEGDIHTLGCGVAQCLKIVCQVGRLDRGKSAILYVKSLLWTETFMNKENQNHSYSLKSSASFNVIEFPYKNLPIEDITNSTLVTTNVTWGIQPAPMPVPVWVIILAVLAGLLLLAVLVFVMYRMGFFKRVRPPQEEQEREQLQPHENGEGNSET
UniProt P06756, sequence (P18084 24-799, chain 2 of 2, further chain): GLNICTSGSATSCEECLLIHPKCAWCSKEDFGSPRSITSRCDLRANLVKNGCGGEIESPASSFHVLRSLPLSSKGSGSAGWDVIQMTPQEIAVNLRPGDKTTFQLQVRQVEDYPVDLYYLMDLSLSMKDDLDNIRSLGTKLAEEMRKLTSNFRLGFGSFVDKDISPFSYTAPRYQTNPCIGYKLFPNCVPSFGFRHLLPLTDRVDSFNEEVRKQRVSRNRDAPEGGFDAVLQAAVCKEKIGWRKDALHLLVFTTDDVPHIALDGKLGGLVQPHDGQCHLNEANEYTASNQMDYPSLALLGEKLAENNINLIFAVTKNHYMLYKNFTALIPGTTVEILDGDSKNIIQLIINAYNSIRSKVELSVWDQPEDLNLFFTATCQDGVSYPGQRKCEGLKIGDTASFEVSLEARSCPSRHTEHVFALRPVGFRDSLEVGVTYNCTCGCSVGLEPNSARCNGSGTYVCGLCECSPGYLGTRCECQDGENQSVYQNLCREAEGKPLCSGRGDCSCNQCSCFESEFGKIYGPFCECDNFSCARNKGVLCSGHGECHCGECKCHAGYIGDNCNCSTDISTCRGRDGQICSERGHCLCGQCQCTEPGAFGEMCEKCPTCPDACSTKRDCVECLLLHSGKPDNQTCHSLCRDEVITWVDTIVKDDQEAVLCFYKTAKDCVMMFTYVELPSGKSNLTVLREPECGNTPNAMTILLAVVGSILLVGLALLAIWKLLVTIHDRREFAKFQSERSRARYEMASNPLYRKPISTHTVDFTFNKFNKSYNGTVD

Consider “Echistatin (Ech), recombinant wild type with 6xHis-tag (natural protein)”, for which the IC50 of inhibition of HT29 cell adhesion to immobilized vitronectin (blocks αvβ5 with vitronectin) was found to be 0.286 µM.

These data come from paper PMC7695343.
